Laboratory results as given in the supplement of paper PMC12764529.
± gives the half width of the 95% confidence interval.

Columns and labels:
[1] = folding stability dG unfold from trypsin proteolysis; higher = more stable
Method in brief: (§1)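 Digests were run with trypsin and chymotrypsin at 11 concentrations in threefold dilutions, plus a no-protease condition, on designed mini-proteins in a PA-tagged cDNA display construct. The mini-proteins were under 80 residues, had no cysteine, and were kept only when AlphaFold2 dimer inter-PAE was above 15. After sequencing, Bayesian fitting of the counts gave K50, from which unfolding free energy was derived against a sequence-predicted unfolded-state K50 and a shared folded-state K50, per protease or combined.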

[2] = folding stability dG unfold from chymotrypsin proteolysis; higher = more stable
Method in brief: as §1

[3] = folding stability dG unfold (combined trypsin and chymotrypsin); higher = more stable
Method in brief: as §1

| Sequence | folding stability dG unfold [1] [kcal/mol] | folding stability dG unfold [2] [kcal/mol] | folding stability dG unfold [3] [kcal/mol] |
| --- | --- | --- | --- |
| MLTKVSTLTREDPSTGTTTTITVYKPPDGTLIVKVTTTTYSTTPDGTVTTTTSTTTVTLPPSVDVEKVFSSS [r1_243_JUSTAS] | 1.76 ± 0.068 | 3.01 ± 0.056 | 2.58 ± 0.12 |
| SAGGSAGGSEKVTIRFPAKELRERFPNATPEQIADRIAKKFPNIKRIEVEQEPGYYRITVQVESAGGSAGGS [r12_590_TrROS] | 2.58 ± 0.12 | 1.49 ± 0.043 | 2.15 ± 0.12 |
| SAGGSSMPLVKKEVDATRPDGSPLSFEEYLSSLKPNIRSEPIPNGKTVVTAPDPATGSTYTITIEESAGGSA [r2_234_JUSTAS] | -1.31 ± 0.19 | -0.37 ± 0.14 | -0.428 ± 0.079 |
| SAGGSAGGSSFEITVYHPDKGKPFKAKVDIEPELVDGDGKPVLVYKAKITIGDKPFEAVFVLNSAGGSAGGS [r20_39_TrMRF] | 2.14 ± 0.08 | 2.89 ± 0.043 | 2.63 ± 0.14 |
| SAGGSAGGSAKTLTLTTPNGDKVEVKLYELPDDFVLAEIKVLATGEKFYALLTKDGTVYLASAGGSAGGSAG [r3_15_TrMRF] | 2.47 ± 0.084 | 3.49 ± 0.15 | 3.06 ± 0.13 |
| SAGMLGEEAIKDVKLELKEAPENEELVFEDTFPVGDKIARIRIVLKLPKNGGYEIKDIPIEVMAPEEAESAG [r5_96_TrMRF] | -0.469 ± 0.27 | -0.177 ± 0.42 | < -1 |
| SAGGSANEILEKLGYPEENIVERKKVFKLPNGTELYEYVIPKTENGVTATILVEKTPKGVKIKVLPSAGGSA [r15_813_JUSTAS] | -0.642 ± 0.44 | 0.414 ± 0.25 | 0.318 ± 0.22 |
| SAGGSAGGSAEKLLIVVEVDTPEQAEALAKALAALLPPGAKITVKPVEVDGKLYLVAEVELSAGGSAGGSAG [r3_92_TrROS_Hall] | 3.6 ± 0.16 | 3.84 ± 0.21 | 3.75 ± 0.2 |
| SAGGPITITIKTKNGKELELKLPGIRSVQFNPDSVWIAFKFPDQYIMIQINPPNGKIMIQIMPPGQPISAGG [r13_392_TrROS] | 2.47 ± 0.097 | 3.66 ± 0.053 | 3.18 ± 0.14 |
| SAGGSAGGSAGGMPVTFTGENQPVEVLSVDPERPVVVVYYPPTGTLLVALPPTGKVFPVSAGGSAGGSAGGS [r10_440_TrMRF] | -0.867 ± 0.54 | 0.492 ± 0.15 | 0.18 ± 0.14 |
| SAEEVTVKLELEIKIKVSEEEAKALAEELARALKEAGEVKITVEPVEKDEDGYYRIRVTIEVKIKKEDLSAG [r14_413_TrROS_Hall] | 3.57 ± 0.12 | 4.24 ± 0.11 | 4.02 ± 0.095 |
| SAGGSAMPKYVISGIYRLPDKTLFFDYVIPPGLAENPERVKELAEEIRELLEQLGYPAVDFKIEPVSAGGSA [r15_781_TrMRF] | 1.65 ± 0.043 | 2.09 ± 0.065 | 1.99 ± 0.098 |
| SAGGSAGMNRVSLKPLPDGTYEVTITYPDGSTSTYTVPGPAVSLEEILKRLNIPESIEVEDVEPLGSAGGSA [r15_167_JUSTAS] | 2.64 ± 0.089 | 3.87 ± 0.059 | 3.52 ± 0.075 |
| SAGGSAGGSNYINVKIEIWDPPNGKEREITINIPVPPGDPDYLKEIVNELASNFPGYYVKVEISAGGSAGGS [r12_795_TrROS] | 1.61 ± 0.11 | 1.61 ± 0.058 | 1.64 ± 0.23 |
| SAGGGPMPVEKEVEITLEVDPSDPASVRARLEALAASRGVEEITEITEETLPDGSRRVTAKVKWLLPVSAGG [r13_222_JUSTAS] | 1.15 ± 0.067 | 0.397 ± 0.15 | 0.875 ± 0.087 |
| SAGGSALPPDAPFTVEREVPFTLPDGALVTLYYNPETGTVLVRFYPPDGGEVRVEAKAEEALALLSSAGGSA [r15_2_TrMRF] | 1.17 ± 0.019 | 1.34 ± 0.06 | 1.31 ± 0.039 |
| SAGGSAGGKKLTAEELAKKLKELIPDVEKVEIVSVDKKTKKVTIKVKTKKEKEKIKEALKELLKSAGGSAGG [r6_635_TrROS_Hall] | 0.56 ± 0.064 | 0.816 ± 0.048 | 0.65 ± 0.1 |
| SAGGSAGGSAGGMTVTTEKAAPSPRQVTVTTVYDPSTGTSVTIVTLPDGSLKVIPSGTLSAGGSAGGSAGGS [r10_996_JUSTAS] | 0.193 ± 0.14 | -0.404 ± 0.22 | -0.247 ± 0.23 |
| SAGGSAGGPVWKIRFPDDGKPYEFHINPNHGMIEVEDPKDGEPKGTVPMPINQLLEKGMEVEPVSAGGSAGG [r6_832_TrROS] | -0.769 ± 0.28 | -0.45 ± 0.26 | -0.551 ± 0.21 |
| SAGGNIEVDNDMIEIPFPGGFTIMIRLPPDKGKVTVHIERDPNNPMFREFAKEIADQLPGLPVEVHPWSAGG [r13_34_TrROS] | 0.996 ± 0.11 | 0.414 ± 0.14 | 0.752 ± 0.08 |
| SAETVVNVTISRPPPSKYSVTITIQPPTSSTSLPTTTDLPPGAYEELLAALQKAHPNLTFSTVTETSDGSAG [r14_969_JUSTAS] | 0.614 ± 0.03 | 0.758 ± 0.15 | 0.828 ± 0.12 |

| Sequence | folding stability dG unfold [1] [kcal/mol] | folding stability dG unfold [2] [kcal/mol] | folding stability dG unfold [3] [kcal/mol] |
| --- | --- | --- | --- |
| SAGGSMRITKIEIEPNPNGDYKITITMTENGHITVEVMNPNGKPKEVEVNMPNGDPEEVVKEAIKASAGGSA [r2_298_TrROS] | 0.686 ± 0.041 | 2.25 ± 0.1 | 1.63 ± 0.083 |
| SAGGSSELEEAIEKARAEPGVLVERTVKLPDGRELKVEVDPKTGIVTLTETLPDGSTTTKEETYEPSAGGSA [r2_263_JUSTAS] | 0.512 ± 0.088 | 1.26 ± 0.085 | 1.11 ± 0.13 |
| SAGGEKEEIIKKLSKYPKNYRVLLKSPDGTLYEYSSPEEVIKMPLTLPNGKEVIIVKISPEKSPKLLSAGGS [r16_680_JUSTAS] | 0.438 ± 0.091 | 0.836 ± 0.098 | 0.758 ± 0.099 |
| SAGGSAGGLEDVIRALGLELLEREKIGEKIRILARDPNADRLYEVTVTLEGPPEIEITPLPPGLSAGGSAGG [r6_195_JUSTAS] | 2.79 ± 0.052 | 3.225 ± 0.022 | 3.04 ± 0.037 |
| SAGGSAGGSAPETSLTSTFEFRFEVDGELYAVRIERRVLLSADGDLRVETRIEIIPIPPDVPASAGGSAGGS [r12_927_TrMRF] | 3.72 ± 0.13 | 5.1 ± 0.12 | 4.79 ± 0.11 |
| SAGLEVEIVSVEYDEETNTVKVKVKVRNPETNEVTTLELTIKLPPPPPPVEKVEVKEVKDGKVTVTYEESAG [r5_150_TrROS_Hall] | 1.43 ± 0.18 | 0.394 ± 0.13 | 1.28 ± 0.48 |
| SAGGAPIEAAPDEEITLTFTLTVRFRGPDGAEGTATFRLTVPVKVEPVPPVPEPRVFRLPDGSEVTLGSAGG [r13_401_TrMRF] | 1.48 ± 0.057 | 1.66 ± 0.12 | 1.64 ± 0.12 |
| SPPNFEVKEVEIPVPWEEIKELLPPGFTDIEPTGDRWTLHFKHPGYFVMIEIQWDPEDNQFPVKISVFKMSA [r9_604_TrROS] | 2.59 ± 0.11 | 3.76 ± 0.054 | 3.35 ± 0.19 |
| SAGWHEIEIEIMIPFPKENAEELAKEIAEEIARMHGFKITNIEVQVYPTDGEYYVMIPVKIRIPPPNDTSAG [r14_219_TrROS] | 2.81 ± 0.061 | 3.15 ± 0.056 | 3.05 ± 0.11 |
| SAKVKISIEFDKKTNKVTIKVKYKGDKEKEKEITLSLEELQKKLGKPLSLEEIIKLLKEKGIDEVEIYPSAG [r14_809_TrROS_Hall] | 3.44 ± 0.14 | 4.26 ± 0.093 | 4.06 ± 0.15 |
| SAGGSAGGMITVNSEEEAKELEAELKEKGYKAEVTPKTGKNGPYYLITLTPIPKKKKSTKKSKLSAGGSAGG [r6_182_JUSTAS] | 1.16 ± 0.095 | 1.03 ± 0.11 | 1.13 ± 0.21 |
| DLDITDPALVPVPERNYPFTVVSLTGPGNGAVTVELTLDGQTVSATVDPSTGTVTFTFPGTGASAVATADPS [r1_125_TrMRF] | 1.69 ± 0.087 | 1.61 ± 0.08 | 1.68 ± 0.12 |
| SAGGSAGGSAGGSLSSNGSSLPPVPPAPVTDEPVEFPTPVLVTVSYYPLTGERRVEVLLSAGGSAGGSAGGS [r4_305_JUSTAS] | -0.291 ± 0.038 | 0.272 ± 0.07 | 0.178 ± 0.068 |
| SAGGSAGGSAGWIWMKVTEVNPDDGTIKIKFDGQKIKIPAKNMKIREDGDYVEIEIPEDDSAGGSAGGSAGG [r17_403_TrROS] | 0.137 ± 0.16 | 0.242 ± 0.22 | 0.228 ± 0.11 |
| SAGGSAGGSPKITVDPNTGKVLIEIPGPSGTALIIAEVKDGKITRVDIIGPPELREAIKKLLGSAGGSAGGS [r20_112_TrMRF] | 2.19 ± 0.082 | 2.04 ± 0.092 | 2.08 ± 0.073 |
| SAGGASVDRELTDPVTGDKIEVTITRLPDGSWLIEVTVTDAEGKTTKYPKTFPPGSYTPEDTIDFTKDSAGG [r13_959_JUSTAS] | 1.92 ± 0.2 | 2.14 ± 0.12 | 2.1 ± 0.16 |
| SGSTTLKTTTIPEGPLTVETTISPDGVVTGTIYDPEGKKIADYTMTYTWTTLPNGEKRLETVTVTINLGLSA [r9_434_JUSTAS] | 1.9 ± 0.05 | 2.55 ± 0.063 | 2.35 ± 0.07 |
| SAGGSAGGSAGSMEEALAAELRARGGVAVEIERIHVPSELAPGTKLPADEVLIRVTARPAASAGGSAGGSAG [r3_229_JUSTAS] | -0.139 ± 0.46 | 0.683 ± 0.12 | 0.525 ± 0.17 |
| SAGGGMIERYDGKIVIKLKGPNGKEWTSTTEPLPDGTARITVTHPDKVLYLEHTPEGISVVSEVSNEKSAGG [r13_619_JUSTAS] | -0.757 ± 0.33 | -0.426 ± 0.45 | -0.411 ± 0.22 |
| SASMIQKYFKSQGYKIEKIEEKTLPNGERVVSYKITSTVNVPPNEKGVSKPVKKTTELTLSTEEAIKLGSAG [r14_16_JUSTAS] | 0.304 ± 0.14 | 1.32 ± 0.21 | 1.04 ± 0.15 |
| SAGGSSMTVTKLPTNKTVTTRPLPSSSSVTTTTTFDPNSPVATVTTTDTSSDTSTTTTVPLGPGAFSAGGSA [r2_114_JUSTAS] | 0.783 ± 0.035 | 0.892 ± 0.06 | 0.824 ± 0.11 |
